B1: C68.121 (antibody, V domains shown)
VH: EVQLVESGGGLVKPGGSLRLSCAASGFTFSDYYMTWIRQAPGKGLEWVSKITNSNSYTHYADSVKGRFTISRDNAKNSLFLHMNSLRAEDTAVYYCARAIWIGYPDDYYMDVWGKGTTVTVSS
VL: SYELTQPPSVSVSPGQTARITCSGDTLPNQYVYWYQQKPGQAPVLLIYKDTERPSGIPERVSGSTSGTTVTLTISGVQAEDEADYYCQSADSSGTSFGGGTKLTVL
B2: C68.239 (antibody, V domains shown)
VH: EVQLLESGGGLVQPGGSLRLSCAASGFTFSSYAMSWVRQAPGKGLEWVSAISGGGDNTYYADSVKGRFTISRDNSKNTLYLQMNSLRAEDTAVYFCAKNPITVVPAAWDRGYFDLWGRGTLVTVSS
VL: SYELTQPPSVSVAPRKTARITCGGNNIGSYSVHWYQQRPGQAPVLVVHDDSDRPSGIPERFSGSNSGNTATLTISRVEAGDEADYYCQVWDSSSDHRGVFGGGTKLTVL
B3: C68.83 (antibody, V domains shown)
VH: EVQLVESGGGVVQPGRSLRLSCAASGFIFSSYGMHWVRQAPGKGLEWVAVIWYDGSNKYYADSVKGRFTISRDNSKNTLYLQMNSLRAEDTAVYYCARDDPEVGCSGGSCYYYYDMDVWGQGTTVTVSS
VL: SYELTQPPSVSVSPGQTARITCSGDALPKQHAHWYQQKPGQAPVLVIYKDIERPSGIPERFSGSSSGTTVTLTISGVQAEDEADYYCQSADSSVTYVVFGGGTKLTVL
B4: C68.185 (antibody, V domains shown)
VH: QVQLVQSGAEVKKPGASVKVSCKTSGYAFTDHYVHWVRQAPGQGLEWMGVINPSGVGTSYAQMFQDRVTLTSDTSTSTVYMVLSSLRSEDTAVYYCVRDDYGVPARGWFDPWGQGTLVTVSS
VL: EVVLTQSPATLSLSPGERATLSCRASQSISSYLAWYQQKPGQAPRLLIYDASNRATGVPARFSGSGSGADFTLTISSLEAEDFALYYCQHRSNWLYTFGQGTKLEIK
B5: C68.183 (antibody, V domains shown)
VH: EVQLLESGGGLVQPGGSLRLSCVASGFTFRNFAMSWVRQAPGKGLEWVSAISGSGDSTYYADSVKGRFTISRDNSKNTLYLQVNSLRVEDTAIYYCAKGSRGSTDYFDSWGQGTLVTVSS
VL: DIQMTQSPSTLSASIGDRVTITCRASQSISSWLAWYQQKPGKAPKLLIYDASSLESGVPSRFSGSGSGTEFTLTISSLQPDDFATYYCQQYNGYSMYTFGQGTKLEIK
B6: C68.88 (antibody, V domains shown)
VH: QVQLQESGPGLVKPSETLSLTCSVSGGPISSSRYYWGWIRQSPGEGLEWIGTIYYSGSTYYNPSFKSRVTISVDTSKNQFSLKLSSVTAADTAVYYCATRCYDFWSGYYNREMLWFDCWGQGTLVTVSS
VL: NFMLTQPHSVSESPGKTVTISCTRSSGSIASNYVQWYQQRPGSSPTTVIYENNQTPSGVPDRFSGSIDSSSNSASLTISGLKTEDEADYYCQSYDSSVVVFGGGTKLTVL
B7: C68.200 (antibody, V domains shown)
VH: EVQLLESGGGLVQPGGSLRLSCTASGFTFSRYALTWVRQAPGKGLEWVSAISGSGGNTNYADSVKGRFTISRDNSKNTLYLQMNSLRAEDTAVYYCAKSPRYNNDYFDFWGQGTLVTVSS
VL: DIQLTQSPSTLSASVGDRVTITCRASQSISSWLAWYQQKPGKAPKLLIYDASSLESGVPSRFSGSGSGTEFTLTISSLQPDDFATYYCQQYNTFITFGHGTRLEIK
B8: C68.203 (antibody, V domains shown)
VH: EVQLLESGGGLVQPGGSLRLSCTASGFTFSRYALTWVRQAPGKGLECVSAFSGSGDSTYYADSVKGRFTISRDNSKNTLYLQMNSLRAEDTAVYYCAKSPRYNSDYFDFWGQGTLVTVSS
VL: DIQLTQSPSTLSASVGDRVTITCRASQSISSWLAWYQQKPGKAPKLLIYDASSLESGVPSRFSGSGSGTEFTLTISSLQPDDFATYYCQQYNSFITFGQGTRLEIK
B9: C68.327 (antibody, V domains shown)
VH: EVQLLESGGGLVQPGGSLRLSCAASGFTFGSYAMSWVRQAPGKGLEWVSAISGSGGSTYYADSVKGRFTISRDNSKNTLYLQMNSLRAEDTAVYNCAKDLWDGFHWFDSWGQGTLVTVSS
VL: DIQMTQSPSSVSASVGDRVTITCRASQGISSWLAWYQQKPGKAPNLLIYSASSLQSGVPSRFSGSGSGTDFTLTISSLQPEDFATYYCQQANSFPITFGQGTRLEIK
B10: C68.175 (antibody, V domains shown)
VH: EVQLLESGGGLVQPGGSLRLSCAASGFTFSSYAMSWVRQAPGKGLEWVSGISGSGGSTYYADSVKGRFTISRDNSKNTLHLQMNSLRAEDTAVYYCAKGSRWNPDYFDYWGQGTLVTVSS
VL: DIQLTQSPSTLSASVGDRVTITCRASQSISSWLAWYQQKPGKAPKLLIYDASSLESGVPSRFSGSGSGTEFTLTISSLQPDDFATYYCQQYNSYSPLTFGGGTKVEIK
B11: C68.348 (antibody, V domains shown)
VH: QVQLQESGPRLVKSSGTLSLTCAVSGGSISSSKWWSWVRQPPGKGLEWIGEVYHGGSTNYNPSLKSRVTISVDKAKNQFSLKLSSVTAADSAVYYCASLDSAAVFDYWGQGTLVTVSS
VL: QSALTQPASVSGSPGQSITISCTGTSSDVGRFNYVSWYQQHPGKAPKLLIYDVSNRPSGVSNRFSGSKSGNTASLTISGLQAEDEADYYCNSYTSSSTLYVFGTGTKVTVL

The binders below were run against T1, SARS-CoV-2 Wuhan-Hu-1 recombinant spike protein (trimer) (SARS-CoV-2 Wuhan-Hu-1, UniProt P0DTC2) (assay: ELISA). Conditions: both partners purified.
T1 construct: source: bought: Sino Biologics
B1: binds.
B2: binds.
B3: binds.
B4: binds.
B5: binds.
B6: binds.
B7: binds.
B8: binds.
B9: binds.
B10: binds.
B11: binds.
